Target: H. pylori RNase R (HpRNase R), recombinant, His-tagged (H. pylori)
Assay: AUC

Chain of H. pylori RNase R (HpRNase R), recombinant, His-tagged (H. pylori) (P56123 whole entry): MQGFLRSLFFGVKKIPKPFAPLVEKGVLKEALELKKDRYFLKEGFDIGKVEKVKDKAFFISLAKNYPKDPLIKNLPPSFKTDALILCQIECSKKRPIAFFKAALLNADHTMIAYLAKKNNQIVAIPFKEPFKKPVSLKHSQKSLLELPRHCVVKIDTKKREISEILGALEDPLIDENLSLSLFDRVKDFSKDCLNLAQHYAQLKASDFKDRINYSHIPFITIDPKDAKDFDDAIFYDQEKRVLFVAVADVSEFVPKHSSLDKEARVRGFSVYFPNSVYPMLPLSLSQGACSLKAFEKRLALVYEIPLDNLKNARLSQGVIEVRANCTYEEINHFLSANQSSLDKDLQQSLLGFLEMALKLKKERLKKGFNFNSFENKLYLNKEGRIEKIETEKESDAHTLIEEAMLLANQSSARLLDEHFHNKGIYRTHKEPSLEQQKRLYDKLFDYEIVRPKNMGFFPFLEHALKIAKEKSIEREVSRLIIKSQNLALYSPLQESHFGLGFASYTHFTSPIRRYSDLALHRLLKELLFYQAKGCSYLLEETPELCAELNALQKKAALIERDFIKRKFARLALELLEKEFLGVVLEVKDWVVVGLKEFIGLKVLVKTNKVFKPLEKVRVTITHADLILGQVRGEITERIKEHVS
Chain of RhpA DEAD-box RNA helicase of H. pylori, recombinant, His-tagged (enzyme) (B9XXL6 whole entry): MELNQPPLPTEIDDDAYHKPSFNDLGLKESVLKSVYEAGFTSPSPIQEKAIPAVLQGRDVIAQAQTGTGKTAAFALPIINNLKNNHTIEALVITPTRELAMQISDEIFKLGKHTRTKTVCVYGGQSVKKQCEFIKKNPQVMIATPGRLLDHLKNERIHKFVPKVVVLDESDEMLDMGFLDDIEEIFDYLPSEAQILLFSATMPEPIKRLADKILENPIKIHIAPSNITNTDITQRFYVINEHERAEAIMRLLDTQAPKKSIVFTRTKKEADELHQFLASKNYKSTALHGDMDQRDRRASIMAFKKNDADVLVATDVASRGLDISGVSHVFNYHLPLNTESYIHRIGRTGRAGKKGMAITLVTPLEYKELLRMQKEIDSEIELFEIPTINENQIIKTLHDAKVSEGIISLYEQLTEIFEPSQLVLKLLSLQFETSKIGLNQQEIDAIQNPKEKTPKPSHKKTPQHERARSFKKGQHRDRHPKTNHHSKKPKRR

## RhpA DEAD-box RNA helicase of H. pylori, recombinant, His-tagged (enzyme)
  stoichiometry N: 1
